Source: US20110097323A1 (published 2011)

T1: CD32B (FcγRII-B) (UniProt P31994 43-217, limits assumed)
T1 construct: No species or construct stated
T1 sequence (looked up): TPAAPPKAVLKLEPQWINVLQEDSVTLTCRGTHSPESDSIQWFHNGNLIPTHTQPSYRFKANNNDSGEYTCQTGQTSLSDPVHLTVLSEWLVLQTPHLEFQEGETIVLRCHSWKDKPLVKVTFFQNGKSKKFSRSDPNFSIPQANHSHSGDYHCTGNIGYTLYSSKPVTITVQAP

B1: Fc variant D270E G316D P396L R416G (other, UniProt P01857-1 99-330, looked up, name in EU numbering)
chain: EPKSCDKTHTCPPCPAPELLGGPSVFLFPPKPKDTLMISRTPEVTCVVVDVSHEEPEVKFNWYVDGVEVHNAKTKPREEQYNSTYRVVSVLTVLHQDWLNDKEYKCKVSNKALPAPIEKTISKAKGQPREPQVYTLPPSRDELTKNQVSLTCLVKGFYPSDIAVEWESNGQPENNYKTTPLVLDSDGSFFLYSKLTVDKSGWQQGNVFSCSVMHEALHNHYTQKSLSLSPGK
notes: domain: Fc region; positions are EU index; also called D270E P396L G316D R416G
B2: Fc variant F243L D270E K392T P396L (other, UniProt P01857-1 99-330, looked up, name in EU numbering)
chain: EPKSCDKTHTCPPCPAPELLGGPSVFLLPPKPKDTLMISRTPEVTCVVVDVSHEEPEVKFNWYVDGVEVHNAKTKPREEQYNSTYRVVSVLTVLHQDWLNGKEYKCKVSNKALPAPIEKTISKAKGQPREPQVYTLPPSRDELTKNQVSLTCLVKGFYPSDIAVEWESNGQPENNYTTTPLVLDSDGSFFLYSKLTVDKSRWQQGNVFSCSVMHEALHNHYTQKSLSLSPGK
notes: domain: Fc region; positions are EU index
B3: Fc variant F243L R292P Y300L V305I P396L (other, UniProt P01857-1 99-330, looked up, name in EU numbering)
chain: EPKSCDKTHTCPPCPAPELLGGPSVFLLPPKPKDTLMISRTPEVTCVVVDVSHEDPEVKFNWYVDGVEVHNAKTKPPEEQYNSTLRVVSILTVLHQDWLNGKEYKCKVSNKALPAPIEKTISKAKGQPREPQVYTLPPSRDELTKNQVSLTCLVKGFYPSDIAVEWESNGQPENNYKTTPLVLDSDGSFFLYSKLTVDKSRWQQGNVFSCSVMHEALHNHYTQKSLSLSPGK
notes: domain: Fc region
B4: Fc variant F243L P247L D270E N421K (other, UniProt P01857-1 99-330, looked up, name in EU numbering)
chain: EPKSCDKTHTCPPCPAPELLGGPSVFLLPPKLKDTLMISRTPEVTCVVVDVSHEEPEVKFNWYVDGVEVHNAKTKPREEQYNSTYRVVSVLTVLHQDWLNGKEYKCKVSNKALPAPIEKTISKAKGQPREPQVYTLPPSRDELTKNQVSLTCLVKGFYPSDIAVEWESNGQPENNYKTTPPVLDSDGSFFLYSKLTVDKSRWQQGKVFSCSVMHEALHNHYTQKSLSLSPGK
notes: as for B2
B5: Fc variant F243L R292P V305I (other, UniProt P01857-1 99-330, looked up, name in EU numbering)
chain: EPKSCDKTHTCPPCPAPELLGGPSVFLLPPKPKDTLMISRTPEVTCVVVDVSHEDPEVKFNWYVDGVEVHNAKTKPPEEQYNSTYRVVSILTVLHQDWLNGKEYKCKVSNKALPAPIEKTISKAKGQPREPQVYTLPPSRDELTKNQVSLTCLVKGFYPSDIAVEWESNGQPENNYKTTPPVLDSDGSFFLYSKLTVDKSRWQQGNVFSCSVMHEALHNHYTQKSLSLSPGK
notes: as for B2
B6: Fc variant D270E K392T P396L (other, UniProt P01857-1 99-330, looked up, name in EU numbering)
chain: EPKSCDKTHTCPPCPAPELLGGPSVFLFPPKPKDTLMISRTPEVTCVVVDVSHEEPEVKFNWYVDGVEVHNAKTKPREEQYNSTYRVVSVLTVLHQDWLNGKEYKCKVSNKALPAPIEKTISKAKGQPREPQVYTLPPSRDELTKNQVSLTCLVKGFYPSDIAVEWESNGQPENNYTTTPLVLDSDGSFFLYSKLTVDKSRWQQGNVFSCSVMHEALHNHYTQKSLSLSPGK
notes: as for B2
B7: Fc variant R255L D270E P396L (other, UniProt P01857-1 99-330, looked up, name in EU numbering)
chain: EPKSCDKTHTCPPCPAPELLGGPSVFLFPPKPKDTLMISLTPEVTCVVVDVSHEEPEVKFNWYVDGVEVHNAKTKPREEQYNSTYRVVSVLTVLHQDWLNGKEYKCKVSNKALPAPIEKTISKAKGQPREPQVYTLPPSRDELTKNQVSLTCLVKGFYPSDIAVEWESNGQPENNYKTTPLVLDSDGSFFLYSKLTVDKSRWQQGNVFSCSVMHEALHNHYTQKSLSLSPGK
notes: as for B2
B8: Fc variant D270E G316D R416G (other, UniProt P01857-1 99-330, looked up, name in EU numbering)
chain: EPKSCDKTHTCPPCPAPELLGGPSVFLFPPKPKDTLMISRTPEVTCVVVDVSHEEPEVKFNWYVDGVEVHNAKTKPREEQYNSTYRVVSVLTVLHQDWLNDKEYKCKVSNKALPAPIEKTISKAKGQPREPQVYTLPPSRDELTKNQVSLTCLVKGFYPSDIAVEWESNGQPENNYKTTPPVLDSDGSFFLYSKLTVDKSGWQQGNVFSCSVMHEALHNHYTQKSLSLSPGK
notes: as for B2
B9: Fc variant F243L D270E P396L Q419H (other, UniProt P01857-1 99-330, looked up, name in EU numbering)
chain: EPKSCDKTHTCPPCPAPELLGGPSVFLLPPKPKDTLMISRTPEVTCVVVDVSHEEPEVKFNWYVDGVEVHNAKTKPREEQYNSTYRVVSVLTVLHQDWLNGKEYKCKVSNKALPAPIEKTISKAKGQPREPQVYTLPPSRDELTKNQVSLTCLVKGFYPSDIAVEWESNGQPENNYKTTPLVLDSDGSFFLYSKLTVDKSRWQHGNVFSCSVMHEALHNHYTQKSLSLSPGK
notes: as for B2
B10: Fc variant P247L D270E N421K (other, UniProt P01857-1 99-330, looked up, name in EU numbering)
chain: EPKSCDKTHTCPPCPAPELLGGPSVFLFPPKLKDTLMISRTPEVTCVVVDVSHEEPEVKFNWYVDGVEVHNAKTKPREEQYNSTYRVVSVLTVLHQDWLNGKEYKCKVSNKALPAPIEKTISKAKGQPREPQVYTLPPSRDELTKNQVSLTCLVKGFYPSDIAVEWESNGQPENNYKTTPPVLDSDGSFFLYSKLTVDKSRWQQGKVFSCSVMHEALHNHYTQKSLSLSPGK
notes: as for B2
B11: Fc variant D270E P396L Q419H (other, UniProt P01857-1 99-330, looked up, name in EU numbering)
chain: EPKSCDKTHTCPPCPAPELLGGPSVFLFPPKPKDTLMISRTPEVTCVVVDVSHEEPEVKFNWYVDGVEVHNAKTKPREEQYNSTYRVVSVLTVLHQDWLNGKEYKCKVSNKALPAPIEKTISKAKGQPREPQVYTLPPSRDELTKNQVSLTCLVKGFYPSDIAVEWESNGQPENNYKTTPLVLDSDGSFFLYSKLTVDKSRWQHGNVFSCSVMHEALHNHYTQKSLSLSPGK
notes: as for B2
B12: Fc variant F243L R292P V305I P396L (other, UniProt P01857-1 99-330, looked up, name in EU numbering)
chain: EPKSCDKTHTCPPCPAPELLGGPSVFLLPPKPKDTLMISRTPEVTCVVVDVSHEDPEVKFNWYVDGVEVHNAKTKPPEEQYNSTYRVVSILTVLHQDWLNGKEYKCKVSNKALPAPIEKTISKAKGQPREPQVYTLPPSRDELTKNQVSLTCLVKGFYPSDIAVEWESNGQPENNYKTTPLVLDSDGSFFLYSKLTVDKSRWQQGNVFSCSVMHEALHNHYTQKSLSLSPGK
notes: as for B2
B13: Fc variant F243L R292P Y300L P396L (other, UniProt P01857-1 99-330, looked up, name in EU numbering)
chain: EPKSCDKTHTCPPCPAPELLGGPSVFLLPPKPKDTLMISRTPEVTCVVVDVSHEDPEVKFNWYVDGVEVHNAKTKPPEEQYNSTLRVVSVLTVLHQDWLNGKEYKCKVSNKALPAPIEKTISKAKGQPREPQVYTLPPSRDELTKNQVSLTCLVKGFYPSDIAVEWESNGQPENNYKTTPLVLDSDGSFFLYSKLTVDKSRWQQGNVFSCSVMHEALHNHYTQKSLSLSPGK
notes: as for B2
B14: Fc variant R255L D270E R292G P396L (other, UniProt P01857-1 99-330, looked up, name in EU numbering)
chain: EPKSCDKTHTCPPCPAPELLGGPSVFLFPPKPKDTLMISLTPEVTCVVVDVSHEEPEVKFNWYVDGVEVHNAKTKPGEEQYNSTYRVVSVLTVLHQDWLNGKEYKCKVSNKALPAPIEKTISKAKGQPREPQVYTLPPSRDELTKNQVSLTCLVKGFYPSDIAVEWESNGQPENNYKTTPLVLDSDGSFFLYSKLTVDKSRWQQGNVFSCSVMHEALHNHYTQKSLSLSPGK
notes: as for B2
B15: Fc variant F243L D270E G316D R416G (other, UniProt P01857-1 99-330, looked up, name in EU numbering)
chain: EPKSCDKTHTCPPCPAPELLGGPSVFLLPPKPKDTLMISRTPEVTCVVVDVSHEEPEVKFNWYVDGVEVHNAKTKPREEQYNSTYRVVSVLTVLHQDWLNDKEYKCKVSNKALPAPIEKTISKAKGQPREPQVYTLPPSRDELTKNQVSLTCLVKGFYPSDIAVEWESNGQPENNYKTTPPVLDSDGSFFLYSKLTVDKSGWQQGNVFSCSVMHEALHNHYTQKSLSLSPGK
notes: as for B2
B16: Fc variant F243L R255L D270E P396L (other, UniProt P01857-1 99-330, looked up, name in EU numbering)
chain: EPKSCDKTHTCPPCPAPELLGGPSVFLLPPKPKDTLMISLTPEVTCVVVDVSHEEPEVKFNWYVDGVEVHNAKTKPREEQYNSTYRVVSVLTVLHQDWLNGKEYKCKVSNKALPAPIEKTISKAKGQPREPQVYTLPPSRDELTKNQVSLTCLVKGFYPSDIAVEWESNGQPENNYKTTPLVLDSDGSFFLYSKLTVDKSRWQQGNVFSCSVMHEALHNHYTQKSLSLSPGK
notes: as for B2
B17: Fc variant F243L P247L N421K (other, UniProt P01857-1 99-330, looked up, name in EU numbering)
chain: EPKSCDKTHTCPPCPAPELLGGPSVFLLPPKLKDTLMISRTPEVTCVVVDVSHEDPEVKFNWYVDGVEVHNAKTKPREEQYNSTYRVVSVLTVLHQDWLNGKEYKCKVSNKALPAPIEKTISKAKGQPREPQVYTLPPSRDELTKNQVSLTCLVKGFYPSDIAVEWESNGQPENNYKTTPPVLDSDGSFFLYSKLTVDKSRWQQGKVFSCSVMHEALHNHYTQKSLSLSPGK
notes: as for B2

Key:
Test in all cases: Table 3; relative to wild-type Fc; method not stated
[1] = target: CD16A V158 (human, UniProt P08637 17-208, limits assumed)
Sequence of CD16A V158 (P08637 17-208 F176V limits assumed): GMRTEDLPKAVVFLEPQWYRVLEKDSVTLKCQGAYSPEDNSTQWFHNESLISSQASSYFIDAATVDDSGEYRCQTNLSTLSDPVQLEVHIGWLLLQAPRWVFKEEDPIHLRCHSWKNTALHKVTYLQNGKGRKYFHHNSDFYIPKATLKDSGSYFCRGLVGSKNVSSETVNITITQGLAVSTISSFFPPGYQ

[2] = target: T1, CD32B (FcγRII-B)
[3] = target: CD16A F158 (human, UniProt P08637 17-208, limits assumed)
Sequence of CD16A F158 (P08637 17-208 limits assumed): as the sequence (P08637 17-208 F176V limits assumed) above, with V160F counted along it

Binder	binding relative to wild-type Fc (fold) [1]	binding relative to wild-type Fc (fold) [2]	binding relative to wild-type Fc (fold) [3]
B1	1.22	1.07	0.94
B2	3.16	0.44	2.44
B3	10.1	1.38	8.25
B4	2.3	0.32	3.45
B5	2.56		1.43
B6	1.81	0.79	2.28
B7	1.34	0.87	1.65
B8	2.18	0.78	2.49
B9	1.46	0.26	1.15
B10	1.89	0.58	2.46
B11	1.64	0.68	
B12	5.37	0.4	2.53
B13	10.1	1.07	5.62
B14		0.65	
B15	1.5	0.2	1.34
B16	1.75	0.38	1.64
B17	1.89	0.17	1.71
